Measured values as given in patent publication US20240366776A1 (Hoffmann-La Roche, published 2024).
Each block holds one binder with its values, some of them ahead of it.

How the values were obtained:
IL2 (R&D, 202-IL) = IL2 (R&D, 202-IL) (UniProt P60568 21-153); test: ELISA, scFv on anti-V5
Excerpt: The scFv DNA sequence for each clone was synthesized as a GBLOCK® (Integrated DNA Technologies, Inc.) with a T7 promoter, a translation initiation site, the coding sequence for the scFv sequence with cMyc and V5 tags, and a T7 terminator sequence. Proteins from each of the GBLOCK® fragments were expressed using a cell-free transcription/translation system (Cosmo Bio USA, Inc., PUREFREX® 2.1, Product #GFK-PF213 with DS Supplement, Prod. #GFK-PF005). […] In these experiments, wells of a 384-well plate were coated with an anti-V5 antibody (Sv5-Pk1, BioRad) at lug/ml overnight at 4 degrees. After washing, wells were blocked with SUPERBLOCK™ (ThermoFisher, 37515) followed by addition of saturating levels of scFvs in SUPERBLOCK™. After washing, antigens were added and plates incubated for one hour. To detect PD1 binding, a biotinylated recombinant PD1 was used (PD1-HisAvi, Acro Biosystems, PD1-H82E4). […] Biotinylated antigens were detected using streptavidin HRP using standard methods. Varying amounts of labelled test antigen were added to show binding and to estimate relative affinities of the different scFvs.

[1] = molecular target: T1, biotinylated IL-2 receptor beta gamma heterodimer Fc (IL-2RBG; Acro ILG-H5254) (UniProt P14784 27-239; P31785 23-262, biotinylated); test: ELISA, captured complex, biotin-IL-2RBG titrated
T1 construct: bought heterodimer
T1 sequence (looked up) 1: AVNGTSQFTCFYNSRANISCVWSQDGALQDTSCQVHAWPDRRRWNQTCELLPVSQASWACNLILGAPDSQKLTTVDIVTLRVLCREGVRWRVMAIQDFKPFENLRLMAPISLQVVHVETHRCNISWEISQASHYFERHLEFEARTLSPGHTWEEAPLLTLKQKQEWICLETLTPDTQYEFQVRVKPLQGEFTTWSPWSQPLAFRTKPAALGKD
T1 sequence (looked up) 2: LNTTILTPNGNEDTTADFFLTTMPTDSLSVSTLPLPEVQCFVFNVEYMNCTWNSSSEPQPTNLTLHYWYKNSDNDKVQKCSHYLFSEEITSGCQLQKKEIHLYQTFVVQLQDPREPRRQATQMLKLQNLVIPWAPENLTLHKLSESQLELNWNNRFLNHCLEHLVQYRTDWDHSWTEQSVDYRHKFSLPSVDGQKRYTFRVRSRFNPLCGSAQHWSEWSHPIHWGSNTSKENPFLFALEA

- binding result (IL2 (R&D, 202-IL)): no binding
B1: AB000880 (anti-PD1 control) scFv (AF000327) (scFv)
scFv: MSTSTEQKLISEEDLQVQLVQSGAEVKKPGASVKVSCKASGYTFTTYYMHWVRQAPGQGLEWMGIINPSGGGTLYAQKFQGRVTMTRDTSTSTVYMELSSLRSEDTAVYYCAAGLFIWGQGTTVTVSSASGGGGSGGGGSGGGGSHASDIVMTQSPDSLAVSLGERATINCKASQSLLHSSSNKNYLAWYQQKPGQPPKLLIYWASTRESGVPDRFSGSGSGTDFTLTISSLQAEDVAVYYCQQYYSTPITFGPGTKVDIKGSGLNDIFEAQKIEWHEGKPIPNPLLGLDST
notes: also called AB000880_PD1_R04_C10

- binding result (IL2 (R&D, 202-IL)): no binding
B2: AB000694 (anti-PD1 control) scFv (AF005039) (scFv, V domains shown)
VH: QVQLVESGGGVVQPGRSLRLDCKASGITFSNSGMHWVRQAPGKGLEWVAVIWYDGSKRYYADSVKGRFTISRDNSKNTLFLQMNSLRAEDTAVYYCATNDDYWGQGTLVTVSS
VL: EIVLTQSPATLSLSPGERATLSCRASQSVSSYLAWYQQKPGQAPRLLIYDASNRATGIPARFSGSGSGTDFTLTISSLEPEDFAVYYCQQSSNWPRTFGQGTKVEIK
notes: scFv with cMyc and V5 tags; also called AB000694_nivo

- binding result [1]: binds
B3: AF004695 (other)
heavy 1: QVQLVESGGGVVQPGRSLRLDCKASGITFSNSGMHWVRQAPGKGLEWVAVIWYDGSKRYYADSVKGRFTISRDNSKNTLFLQMNSLRAEDTAVYYCATNDDYWGQGTLVTVSSAKTTAPSVYPLAPVCGDTTGSSVTLGCLVKGYFPEPVTLTWNSGSLSSGVHTFPAVLQSDLYTLSSSVTVTSSTWPSQSITCNVAHPASSTKVDKKIEPRGPTIKPCPPCKCPAPNAAGGPSVFIFPPKIKDVLMISLSPIVTCVVVDVSEDDPDVQISWFVNNVEVHTAQTQTHREDYNSTLRVVSALPIQHQDWMSGKEFKCKVNNKDLGAPIERTISKPKGSVRAPQVYVLPPPEEEMTKKQVTLTCMVTDFMPEDIYVEWTNNGKTELNYKNTEPVLDSDGSYFMYSDLRVEKKNWVERNSYSCSVVHEGLHNHHTTESFSRTPGGGGGSGGGGSGGGGSAPTSSSTKKTQLQLEHLLLDLQMILNGINNYKNPKLTDMLTFEFYMPKKATELKHLQCLERELKPLEEVLNLAQSKNFHLRPRDLISNINVIVLELKGSETTFMCEYADETATIVEFLNRWITFCQSIISTLT
heavy 2: QVQLVESGGGVVQPGRSLRLDCKASGITFSNSGMHWVRQAPGKGLEWVAVIWYDGSKRYYADSVKGRFTISRDNSKNTLFLQMNSLRAEDTAVYYCATNDDYWGQGTLVTVSSAKTTAPSVYPLAPVCGDTTGSSVTLGCLVKGYFPEPVTLTWNSGSLSSGVHTFPAVLQSDLYTLSSSVTVTSSTWPSQSITCNVAHPASSTKVDKKIEPRGPTIKPCPPCKCPAPNAAGGPSVFIFPPKIKDVLMISLSPIVTCVVVDVSEDDPDVQISWFVNNVEVHTAQTQTHREDYNSTLRVVSALPIQHQDWMSGKEFKCKVNNKDLGAPIERTISKPKGSVRAPQVYVLPPPEKEMTKKQVSLTCLVKDFMPEDIYVEWTNNGKTELNYKNTEPVLKSDGSYFMYSKLTVEKKNWVERNSYSCSVVHEGLHNHHTTKSFSRTPGGGGGSGGGGSGGGGSGGGGSQVQLVQSGAEVKKPGASVKVSCKASGDTFTRYYVHWVRQAPGQGLEWMGIINPSGGYASYAQKFQGRVTMTRDTSTSTVYMELSSLRSEDTAVYYCAAGLFIWGQGTLVTVSSASGGGGSGGGGSGGGGSHASDIQMTQSPSSLSASVGDRVTITCRASQSIGRWLAWYQQKPGKAPKLLIYSASNLETGVPSRFSGSGSGTDFTLTISSLQPEDFATYYCQQYNRFPVTFGPGTKVDIK
light: EIVLTQSPATLSLSPGERATLSCRASQSVSSYLAWYQQKPGQAPRLLIYDASNRATGIPARFSGSGSGTDFTLTISSLEPEDFAVYYCQQSSNWPRTFGQGTKVEIKRADAAPTVSIFPPSSEQLTSGGASVVCFLNNFYPKDINVKWKIDGSERQNGVLNSWTDQDSKDSTYSMSSTLTLTKDEYERHNSYTCEATHKTSTSPIVKSFNRNEC
notes: also called AF4695

- binding result [1]: binds
B4: AF004696 (other)
heavy 1: B3 heavy 1
heavy 2: QVQLVESGGGVVQPGRSLRLDCKASGITFSNSGMHWVRQAPGKGLEWVAVIWYDGSKRYYADSVKGRFTISRDNSKNTLFLQMNSLRAEDTAVYYCATNDDYWGQGTLVTVSSAKTTAPSVYPLAPVCGDTTGSSVTLGCLVKGYFPEPVTLTWNSGSLSSGVHTFPAVLQSDLYTLSSSVTVTSSTWPSQSITCNVAHPASSTKVDKKIEPRGPTIKPCPPCKCPAPNAAGGPSVFIFPPKIKDVLMISLSPIVTCVVVDVSEDDPDVQISWFVNNVEVHTAQTQTHREDYNSTLRVVSALPIQHQDWMSGKEFKCKVNNKDLGAPIERTISKPKGSVRAPQVYVLPPPEKEMTKKQVSLTCLVKDFMPEDIYVEWTNNGKTELNYKNTEPVLKSDGSYFMYSKLTVEKKNWVERNSYSCSVVHEGLHNHHTTKSFSRTPGGGGGSGGGGSGGGGSGGGGSQVQLVQSGAEVKKPGASVKVSCKASGYTFTRYYMHWVRQAPGQGLEWMGIINPRAGYTSYALKFQGRVTMTRDTSTSTVYMELSSLRSEDTAVYYCTSGWDVWGQGTLVTVSSASGGGGSGGGGSGGGGSHASDIQMTQSPSSLSASVGDRVTITCRASQSISTWLAWYQQKPGKAPKLLIYAASSLDSGVPSRFSGSGSGTDFTLTISSLQPEDFATYYCQQSYSFPVTFGQGTKVEIK
light: B3 light
notes: also called AF4696
